Results: article PMC13056932 (Nature Communications, 2026)

B1: capsid triplex protein 2 (TRX2; ORF41) (natural protein, UniProt P09291 1-316, looked up)
chain: MAMPFEIEVLLPGELSPAETSALQKCEGKIITFSTLRHRASLVDIALSSYYINGAPPDTLSLLEAYRMRFAAVITRVIPGKLLAHAIGVGTPTPGLFIQNTSPVDLCNGDYICLLPPVFGSADSIRLDSVGLEIVFPLTIPQTLMREIIAKVVARAVERTAAGAQILPHEVLRGADVICYNGRRYELETNLQHRDGSDAAIRTLVLNLMFSINEGCLLLLALIPTLLVQGAHDGYVNLLIQTANCVRETGQLINIPPMPRIQDGHRRFPIYETISSWISTSSRLGDTLGTRAILRVCVFDGPSTVHPGDRTAVIQV
B2: capsid vertex-specific component 2 (CVC2; ORF34) (natural protein, UniProt P09287 1-579, looked up)
chain: MTARYGFGSISFPNKCGIFLSTTKNFIAPNFPIHYWTAPAFELRGRMNPDLEKNTLTLKNAAAVAALDNLRGETITLPTEIDRRLKPLEEQLTRMAKVLDSLETAAAEAEEADAQSEECTRTEIIRNESIHPEVQIAKNDAPLQYDTNFQVDFITLVYLGRARGNNSPGIVFGPWYRTLQERLVLDRPVAARGVDCKDGRISRTFMNTTVTCLQSAGRMYVGDRAYSAFECAVLCLYLMYRTSNSVHEPQVSSFGNLIEHLPEYTETFVNYMTTHENKNSYQFCYDRLPRDQFHARGGRYDQGALTSHSVMDALIRLQVLPPAPGQFNPGVNDIIDRNHTAYVDKIQQAAAAYLERAQNVFLMEDQTLLRLTIDTITALLLLRRLLWNGNVYGDKLKNNFQLGLIVSEATGTPTNNVILRGATGFDGKFKSGNNNFQFLCERYIAPLYTLNRTTELTEMFPGLVALCLDAHTQLSRGSLGRTVIDISSGQYQDRLISLIALELEHRRQNVTSLPIAAVVSIHDSVMLQYERGLGMLMHQPRVRAALEESRRLAQFNVNSDYDLLYFVCLGVIPQFASTP

How the values were obtained:
[1] = target: large tegument protein VP1/2 (ORF22) (Varicella-zoster virus (parental Oka strain)) (UniProt P09278); experiment: cryo-EM structure
cryo-EM structure = target: the molecule itself; experiment: cryo-EM structure

Molecule | stoichiometry N [1] | stoichiometry N (cryo-EM structure)
large tegument protein VP1/2 (ORF22), P09278 1-2763 | 2 | 
B1 |  | 2
B2 |  | 2
